# Paper PMC5489075, “Purification and characterisation of the fission yeast Ndc80 complex” (Protein Expression and Purification, 2017)
# B1: Mal3 (natural protein, S. pombe, UniProt Q10113 1-308, looked up)
# chain: MSESRQELLAWINQVTSLGLTRIEDCGKGYAMIQIFDSIYQDIPLKKVNFECNNEYQYINNWKVLQQVFLKKGIDKVVDPERLSRCKMQDNLEFVQWAKRFWDQYYPGGDYDALARRGNRGPANTRVMNSSAGATGPSRRRQVSSGSSTPSMTKSSANNNNVSSTANTAAVLRAKQAQQQITSLETQLYEVNETMFGLERERDFYFNKLREIEILVQTHLTTSPMSMENMLERIQAILYSTEDGFELPPDQPADLTTALTDHDTNNVAEEAQMTDLKDSETQRVPSAPDFVHARLQSLEVDDDENITF
# notes: Mal3, fission yeast EB1 microtubule plus-end tracking protein; also called Mal3/EB1; unlabelled Mal3
# Target: T1, Ndc80-eGFP holo complex (S. pombe, UniProt Q10198 1-624; Q10173 1-441; Q9UST6 1-198; Q10430 1-238)
# T1 construct: Ndc80, S. pombe, full-length 624 a.a; Nuf2, S. pombe, full-length 441 a.a; Spc24, S. pombe, full-length 198 a.a; Spc25, S. pombe, full-length 238 a.a; also called Ndc80 holo complex; Ndc80 complex; source: E. coli BL21 (DE3) RIL; two sub-complexes purified, mixed, purified (Ni-TED, TEV cleavage, Superose 6 size-exclusion chromatography); not shown: 6His-Z, N-terminal, cleaved; Z-tag, N-terminal, …
# Test: TIRF microscopy; 100 pM Ndc80-eGFP holo complex on dynamic Cy5-microtubules with 10 nM unlabelled Dis1 or 20 nM unlabelled Mal3; read-out is the place of the eGFP signal (lattice or growing plus end); BRB80 with 85 mM KCl, 30 °C
# Conditions: both partners purified
# T1 sequence (Q10198 whole entry, chain 1 of 4): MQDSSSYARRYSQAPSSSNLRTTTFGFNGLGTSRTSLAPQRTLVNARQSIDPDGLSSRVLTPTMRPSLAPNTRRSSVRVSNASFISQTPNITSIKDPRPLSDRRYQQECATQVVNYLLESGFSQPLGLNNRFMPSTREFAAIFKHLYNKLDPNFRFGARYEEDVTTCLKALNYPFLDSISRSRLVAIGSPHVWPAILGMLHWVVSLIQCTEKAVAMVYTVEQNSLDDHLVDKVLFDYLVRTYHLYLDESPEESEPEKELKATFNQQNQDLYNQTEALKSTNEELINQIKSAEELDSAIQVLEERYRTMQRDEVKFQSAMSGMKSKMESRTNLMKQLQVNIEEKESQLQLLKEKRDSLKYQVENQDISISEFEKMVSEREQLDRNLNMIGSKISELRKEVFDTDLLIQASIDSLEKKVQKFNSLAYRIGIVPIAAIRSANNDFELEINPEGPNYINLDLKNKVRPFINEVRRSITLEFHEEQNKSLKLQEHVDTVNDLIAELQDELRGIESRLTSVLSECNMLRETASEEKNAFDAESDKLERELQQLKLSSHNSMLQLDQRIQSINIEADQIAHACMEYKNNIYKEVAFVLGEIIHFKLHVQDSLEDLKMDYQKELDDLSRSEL
# T1 sequence (Q10173 whole entry, chain 2 of 4): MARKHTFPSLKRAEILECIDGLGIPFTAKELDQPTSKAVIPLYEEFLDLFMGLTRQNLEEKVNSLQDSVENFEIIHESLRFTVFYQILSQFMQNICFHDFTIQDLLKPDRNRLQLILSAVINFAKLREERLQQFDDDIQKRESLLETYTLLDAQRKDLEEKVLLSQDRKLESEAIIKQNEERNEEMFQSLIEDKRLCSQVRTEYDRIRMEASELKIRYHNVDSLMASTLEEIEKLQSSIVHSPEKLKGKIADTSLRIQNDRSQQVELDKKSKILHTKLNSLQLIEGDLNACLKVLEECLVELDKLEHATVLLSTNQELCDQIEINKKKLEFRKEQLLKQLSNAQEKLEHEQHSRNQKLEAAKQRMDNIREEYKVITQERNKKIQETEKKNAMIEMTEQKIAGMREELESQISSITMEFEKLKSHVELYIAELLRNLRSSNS
# T1 sequence (Q9UST6 whole entry, chain 3 of 4): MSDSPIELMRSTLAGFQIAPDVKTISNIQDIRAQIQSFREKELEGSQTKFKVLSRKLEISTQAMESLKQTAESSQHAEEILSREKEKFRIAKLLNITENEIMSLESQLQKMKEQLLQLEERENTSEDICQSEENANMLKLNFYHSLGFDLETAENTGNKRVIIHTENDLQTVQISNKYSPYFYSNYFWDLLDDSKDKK
# T1 sequence (Q10430 whole entry, chain 4 of 4): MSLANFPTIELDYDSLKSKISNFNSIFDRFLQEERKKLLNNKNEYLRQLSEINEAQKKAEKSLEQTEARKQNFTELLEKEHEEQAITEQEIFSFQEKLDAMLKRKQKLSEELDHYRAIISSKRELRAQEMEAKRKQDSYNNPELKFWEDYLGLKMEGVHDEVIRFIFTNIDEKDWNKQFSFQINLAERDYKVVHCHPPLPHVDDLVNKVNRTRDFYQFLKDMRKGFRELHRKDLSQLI
binder,measurement,value
B1,binding result,binds
